In patent US20200277405A1, “COMPOSITION FOR ANTIBODY-DRUG CONJUGATE DIRECTED AGAINST TUMOR-CELL ASSOCIATED POLYSIALIC ACID” (Cornell University, priority 2019, published 2020):

How the values were obtained:
polysialylated NCAM = experiment: SPR (Biacore) equilibrium binding to NCAM; parameters: species or system chicken; settings: antibody on Protein A sensor chip; NCAM 0.25-250 nM; Hill slope analysis in Prism
Procedure: FIGS. 5A-5D depict binding affinity analysis of mo735 and ch735 antibodies. Binding kinetics for the mo735 and ch735 antibodies were monitored using Biacore. Commercial mo735 or recombinant purified ch735 was immobilized at low concentrations on a Biacore Protein A sensor chip and the response to different concentrations of NCAM (ranging from 0.25-250 nM) was compared with an empty flow cell. FIGS. 5A-5B depicts representative sensorgram data for mo735 (FIG. 5A) and ch735 (FIG. 5B).
Equilibrium binding-affinity measurements were made by SPR analysis on a Biacore 3000 system. Antibodies mo735 and ch735 were bound to the surface of a Protein A sensor chip with a target level of 1700 response units (RUs). Serial dilutions of the antigen, chicken NCAM, prepared in 10 mM HEPES, pH 7.4, 150 mM NaCl, 3 mM EDTA, 0.005% polysorbate-20 (HBS-EP buffer, GE Healthcare) at concentrations ranging from 0.25 to 250 nM were injected over the chip using the same buffer at a flow rate of 20 μl/min (10 min injection time, 2 min stabilization time, 20 min dissociation). The surface of the chip was regenerated between the injections of each serial dilution with 10 mM glycine, pH 1.5 (30 sec injection time, 3 min stabilization time). Kinetic parameters were determined by fitting the maximum response values for each concentration using the Hill slope non-linear regression analysis in Prism software.

[1] = tested on: chicken brain-derived polysialylated neural cell adhesion molecule (NCAM); experiment: ELISA with immobilized NCAM; type: binding
Procedure: (§1) FIGS. 2A-2D depict binding specificity and affinity of the ch735 antibody. […] ELISA signals (Abs370) were obtained with anti-human IgG secondary antibodies. […] Antibodies were assayed at 1 μg/mL and detected with anti-human IgG secondary antibodies. […] Antibodies were assayed at 10 μg/mL and detected with anti-mouse IgG secondary antibodies.
as §1, with “3A-3D” for “2A-2D”, “mo735” for “the ch735”, “anti-mouse” for “anti-human”
Costar 96-well ELISA plates (Corning) were coated overnight at 4° C. with 50 μl of 1 μg/mL chicken brain NCAM (Millipore) or endoN-treated NCAM in PBS. Chicken NCAM (Millipore, AG265) was digested with 1.5 μg of endoN per 50 μg of NCAM overnight at 37° C. After blocking with 5% (w/v) milk in PBS for 1-3 h at room temperature or overnight at 4° C., ELISA plates were washed three times with wash buffer (PBST with 0.3% BSA) and incubated with serially diluted purified ch735, mo735 (Absolute Antibody), or ab5032 (Millipore) for 1 h at room temperature. Antibody samples were quantified with a Nanodrop. […]

[2] = CFG glycan microarray specificity profiling; type: binding; settings: for glycan specificity from microarrays: CFG glycan array (v5.3 mo735, v5.4 ch735) and glycoprotein array
Procedure: as §1
as §1, with “3A-3D” for “2A-2D”, “mo735” for “the ch735”, “anti-mouse” for “anti-human”
Specificity of mo735 and ch735 was determined using printed glycan arrays 5.3 and 5.4 at the CFG. Both antibodies were analyzed at 10 μg/mL with 5 μg/mL of anti-mouse or anti-human Alexa-Fluor 647 (AF647)-conjugated secondary, respectively. Specificity of mo735 (1 μg/mL) and ch735 (10 μg/mL) was also assessed on a custom glycoprotein array that contained ˜40-50 glycoproteins including chicken brain NCAM and endoN-treated chicken brain NCAM.

[3] = tested on: polySia expressed on the surface of different cancer cell lines; experiment: Flow cytometric analysis of antibody binding to cancer cell lines; type: cell-based, human
Text: FIGS. 6A-6D depict immunostaining of antibody ch735 to polySia-expressing cancer cells. […] Data are the geometric mean fluorescence intensity (MFI), with the values reported as the average of three replicates and the error represented as the standard deviation of the mean. […] Cells were stained with ch735, wheat germ agglutinin (WGA) to stain the cell membrane, and Hoescht to stain nuclei. Scale bars, 10 μm. […] Scale bars, 200 μm.
FIGS. 7A-7B depict binding of antibody ch735 and mo735 to polySia-expressing cancer cells. Representative fluorescence histograms for ch735 (FIG. 7A) and mo735 (FIG. 7B) binding to a panel of cancer cell lines measured by flow cytometry are shown. Histograms represent antibody binding to untreated cells, antibody binding to endoN-treated cells, and anti-human or anti-mouse secondary only control, respectively.
FIGS. 9A-9B depict binding of antibody mo735 to polySia-expressing cancer cells. […] Data are the geometric mean fluorescence intensity (MFI), with the values reported as the average of three replicates and the error represented as the standard deviation of the mean. […] Cells were stained with ch735, wheat germ agglutinin (WGA), and nuclei were stained with Hoescht. Scale bars, 10 μm.
Cancer cells were trypsinized and collected with media, followed by three washes in PBS. To remove polySia, cells were treated with endoN at 3 μg/mL in PBS for 1 h at room temperature. The cells are resuspended in 4% paraformaldehyde (PFA), fixed at room temperature with constant agitation for 10 min, and then washed two times with PBS, and two times with 0.5% BSA in PBS. The cells were collected and resuspended to 1 million cells/100 μL and pipetted into a round bottom 96-well plate. The cells were pelleted in the 96-well plate and resuspended in 0.5% BSA in PBS containing mo735 or ch735 (5 μg/mL) and incubated for 30 min at room temperature with constant agitation. Cells were washed three times with 0.5% BSA in PBS and resuspended in anti-mouse IgG-Alexa-Fluor 488 (AF488) secondary or anti-human IgG-AF488 secondary (ThermoFisher Scientific) at a 1:200 dilution for 30 min at room temperature in the dark with constant agitation. Cells were washed three times, resuspended in 500 μL of 0.5% BSA in PBS, and analyzed on a BD FACSCalibur flow cytometer using Cell Quest Pro software (BD Biosciences).

[4] = molecular target: embryonic brain glycopeptides; settings: against embryonic brain glycopeptides (Hayrinen et al.); read-out: previously reported Kd; cited from earlier work
[5] = previous SPR and ITC experiments; cited from earlier work
cells and tissues = settings: previously published IHC results (Zhang et al.); cited from earlier work
[6] = CFG microarray version 5.4, 10 μg/mL

Molecule | Kd (polysialylated NCAM) | ELISA binding to NCAM [1] | glycan specificity from microarrays [2] | polySia binding on panel of cell lines compared with ch735 ([3]; staining of each of the cell lines) | Kd [4] | preferred polySia chain length [5] | IHC reactivity with cells and tissues (cells and tissues) | glycan array binding to glycan Chart ID #224 [2, 6] | glycan array binding to glycans #225 and 226 [2, 6] | glycan array binding to tetra-sialic acid glycan Chart ID #223 [2, 6] | surface binding by flow cytometry ([3]; A549 and MCF7 cells) | surface binding by flow cytometry ([3]; NCI-H69, NCI-H82 and SH-SY5Y cells) | surface binding by flow cytometry ([3]; SKOV3 and K562 cells) | surface binding by flow cytometry ([3]; SW2 cells) | surface binding following endoN treatment ([3]; polySia-positive cell lines, endoN-treated)
mo735: well-known mouse-derived IgG2a monoclonal antibody 735 targeting polysialic acid (antibody, V domains shown) VH: QIQLQQSGPELVRPGASVKISCKASGYTFTDYYIHWVKQRPGEGLEWIGWIYPGSGNTKYNEKFKGKATLTVDTSSSTAYMQLSSLTSEDSAVYFCARGGKFAMDYWGQGTSVTVSS VL: DVVMTQTPLSLPVSLGDQASISCRSSQSLVHSNGNTYLYWYLQKPGQSPKPLIYRVSNRFSGVPDRFSGSGSGTDFTLKISRVEAEDLGVYFCFQGTHVPYTFGGGTRLEIK | 10.2 nM | specifically recognize polySia | Nearly identical results | Identical polySia binding results | ~5 nM | 8-11 sialic acid residues | reacted with only a limited number of cells and tissues | – | – | – | – | – | – | – | –
ch735: chimeric human IgG1 polySia-specific mAb made by swapping variable regions of mouse mAb 735 (antibody, V domains shown) VH: QIQLQQSGPELVRPGASVKISCKASGYTFTDYYIHWVKQRPGEGLEWIGWIYPGSGNTKYNEKFKGKATLTVDTSSSTAYMQLSSLTSEDSAVYFCARGGKFAMDYWGQGTSVTVSS VL: DVVMTQTPLSLPVSLGDQASISCRSSQSLVHSNGNTYLYWYLQKPGQSPKPLIYRVSNRFSGVPDRFSGSGSGTDFTLKISRVEAEDLGVYFCFQGTHVPYTFGGGTRLEIK | 4.79 nM | specifically recognize polySia | α2,8-linked sialic acid with a degree of polymerization (DP) of three or greater | – | – | – | – | lesser but still significant level of binding above background | not | strong preference | No significant binding above background | lower intensity | not recognized | bound most avidly | lack of surface binding
